Consider 21 molecules from patent US20260258115A1 (MAPP BIOPHARMACEUTICAL, published 2026).

What is called Kd is a measure of binding affinity in units of concentration. The low end stands for higher affinity, the high end for lower affinity.

For test [1], the target named is RSV prefusion F (preF), subtype B (respiratory syncytial virus, subtype B). In words: BLI, IgG. (In general: In BLI a coated tip is dipped into the sample, and binding shifts an interference pattern.)
For test [2], the target named is T1, RSV postfusion F (postF), subtype A (respiratory syncytial virus subtype A, UniProt P03420 26-513).
T1 construct: also called Postfusion subtype A; F deltaFP
The test can be described thus: BLI.

B1: ADI-21028 (antibody, V domains shown)
VH: EVQLVESGGALVKPGGSLRLSCVASGFTFSDYYMHWVRQAPGKGLEWVSYISSTSSFTNYADSVKGRFIISRDNAKNSLYLQLNSLRAEDTAVYYCARDESSGWQTRRHFGMDVWGQGTLVTVSS
VL: EIVMTQSPSTLSASVGDRVTITCRASQSLNTWLAWYQHKPGKAPKLLISTASSLQSGVPSRFSASGSGTEFTLTISSLQPDDFATYYCQQFRGTFGPGTKVEIK
The molecule B1 registered a Kd in test [1] of 3.33 nM.

B2: ADI-19455 (antibody, V domains shown)
VH: EVQLVESGGGLVKPGGSLRLSCAASGFTFSSYSMNWVRQAPGKGLEWVSSISSSSSYIYYADSVKGRFTISRDNAKNSLYLQMNSLRAEDTAVYYCARSQSGSYYSSDYWGQGTLVTVSS
VL: QSVLTQPPSVSGAPGQRVTISCTGSSSNIGAGYDVHWYQQLPGTAPKLLIYGNSNRPSGVPDRFSGSKSGTSASLAITGLQAEDEADYYCQSYDSSLSGWVFGGGTKVTVL
notes: full-length IgG
Turning to B2, in test [2], the binding result is listed as “no binding”.

B3: ADI-19429 (antibody, V domains shown)
VH: EVQLQESGPGLVKPSETLSLTCTVSGGSISSSSYYWGWIRQPPGKGLEWIGSIYYSGSTYYNPSLKSRVTISVDTSKNQFSLKLSSVTAADTAVYYCARTPLYSYGRVVGFYYYGMDVWGQGTTVTVSS
VL: QSVLTQPPSVSGAPGQRVTISCTGSSSNIGAGYDVHWYQQLPGTAPKLLIYGNSNRPSGVPDRFSGSKSGTSASLAITGLQAEDEADYYCQSYDSSLSGWVFGGGTKLTVL
Consider B3, for which the binding result in test [2] was “no binding”.

B4: ADI-21018 (antibody, V domains shown)
VH: EVQLLESGGGLVKPGGSLRLSCAGSGFTLSSYGMNWVRQAPGQGLEWISSISSSSSYINYADSVKGRFTISRDNAQNSLYLQLNSLRAEDTAVYYCARGGLGYDYGLGSYTYADYWGQGTLVTVSS
VL: QSVVTQPPSVSGAPGQRVTISCTGSSSNTGAGYDIHWYQQLPGTGPKLLIYGNKNRPSGVPDRFSGSKSGTSASLAITGLQAEDEADYYCQSYDSSLSGWVFGGGTKVTVL
On to B4, for which the equilibrium dissociation constant (Kd) in test [1] is 0.366 nM.

B5: ADI-25496 (antibody, V domains shown)
VH: QVQLVQSGGGLVKPGGSLRLSCAASGFTFSSYSMNWVRQAPGKGLEWVSSISSSSSYIYYADSVKGRFTISRDNAKNSLYLQMNSLRAEDTAVYYCARVASEVWFFDLWGRGTLVTVSS
VL: QPVLTQPPSVSGAPGQRVTISCTGSSSNIGAGYDVHWYQQLPGTAPKLLIYGNSNRPSGVPDRFSGSKSGTSASLAITGLQAEDEADYYCQSYDSSLSGYVFGTGTKLTVL
notes: full-length IgG
As for B5, in test [2], the binding result is on record as “no binding”.

B6: ADI-25595 (antibody, V domains shown)
VH: EVQLVESGGGLVKPGGSLRLSCAASGFTFSSYSMNWVRQAPGKGLEWVSSISSSSSYIYYADSVKGRFTISRDNAKNSLYLQMNSLRAEDTAVYYCARYQSSSWYYFDYWGQGTLVTVSS
VL: SYVLTQPPSVSGAPGQRVTISCTGSSSNIGAGYDVHWYQQLPGTAPKLLIYGNSNRPSGVPDRFSGSKSGTSASLAITGLQAEDEADYYCQSYDSSLSGVVFGGGTKLTVL
notes: full-length IgG; also called Ab 464
B6: the binding result in test [2] was “no binding”.

B7: ADI-20966 (antibody, V domains shown)
VH: EVQLLESGGGLGKPGGSLRLSCAASGFKLSSYYMHWVRQAPGKGPEWVSSISASSSYINYADSVRGRFTVSRDNAKNSLFLQMNSLRVDDTAIYYCARGAPLTNFGMVLDSWGQGTLVTVSS
VL: QSVLTQPPSVSGAPGQRVTISCTGSGSNIGAGYDVHWYQQVPGRVPKLLIYANNNRPSGVPDRFSGSKSGTSASLAITGLQADDEADYYCQSYDRSLNVVFGGGTKLTVL
Turning to B7, binding in test [1] was characterised by a dissociation constant (Kd) of 0.862 nM.

B8: ADI-20998 (antibody, V domains shown)
VH: QVQLVQSGGGVVQPGRSLRLSCAASGFTLSTYGMHWVRQAPGKGLEWVAVIYYDESNKFYADSVQGRFTISRDDSKNTLFLQMNSLRAEDTAVYYCARESRPRGYSYSDFDSWGQGTLVTVSS
VL: QPGLTQPRSVSGSPGQSVTISCTGTSSDVGTFNYVSWYQQHPGKAPKLMIYDVNQRPSGVPDRFSGSKSGNTASLTISGLQAEDEADYYCCAYAGYYSFGGGTKLTVL
On to B8, for which binding in test [1] was characterised by a dissociation constant (Kd) of 1.35 nM.

B9: ADI-20984 (antibody, V domains shown)
VH: EVQLLETGAEVKKPGASVKVSCHVSGYGLTDLSMHWVRQAPGKRLQWMGSFDPQYGETIDTQNFQGRVTMTVDTSTATLYMQLSGLRSEDTAMYYCATPQSTGALDNWGQGTLVTVSS
VL: DIRVTQSPSSLSASVGDRVTITCRASQSISSYLSWYQQKPGKAPRLVIFAASNLQSGVPSRFSGTGSSRFSDSGSWTDFTLTISSLQPEDFAIYYCQQTYITPFTFGQGTKVDIK
B9 showed an equilibrium dissociation constant (Kd) in test [1] of 20.2 nM.

B10: ADI-20978 (antibody, V domains shown)
VH: EVQLVESGAEVKKPGASVKVSCKASGYTFGNYGISWVRQAPGQGLEWMGWISAYNGNSNYAQKFQGRVTMTTDTSASTAYMEVRSLRSDDTAVYYCARDVPVTAARLLDYWGQGTLVTVSS
VL: DIVLTQTPLSLPVTLGQPASISCRSSQSLVYSDGNTYLSWFQQRPGQSPRRLIYKVSNRDSGVPDRFSGSGSGTDFTLKISRVEAEDVGVYYCMQATDWLGYTFGQGTKLEIK
As for B10, binding in test [1] was put at a Kd of 0.319 nM.

B11: ADI-21057 (antibody, V domains shown)
VH: QVQLVQSGAEVKKPGESLKISCKASGYSLSNNWIAWVRQMPGKGLEWMGIVYLGDSDARYSPSFQGQVTFSADKSISTAYLQWSSLQASDTAMYFCARHHGDLVVTSDSRYFYGLDVWGQGTTVTVSS
VL: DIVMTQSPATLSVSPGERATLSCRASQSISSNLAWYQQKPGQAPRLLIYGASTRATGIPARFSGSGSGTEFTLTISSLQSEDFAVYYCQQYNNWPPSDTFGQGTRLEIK
In test [1], B11 gave a Kd of 0.86 nM.

B12: ADI-20980 (antibody, V domains shown)
VH: QVQLQESGPGLVKPSQTLSLTCSVSGGSVSSGDYYWTWIRQPAGKGLEWIGRIYNSGGTDYSPSLKSRVTISVDTSKNQFSLKLSSVTAADTAVYYCARGRGYYESPWGQGTLVTVSS
VL: EIVLTQSPATLSLSPGERATLSCRASQSVGIYIGWYQQKPGQAPRLLMYDASNRATGIPDRFSGSGSGTDFSLTISSLEPEDFAVYYCQLRSKWLTFGPGTKVEIK
As for B12, the dissociation constant Kd in test [1] came out at 0.542 nM.

B13: ADI-25588 (antibody, V domains shown)
VH: EVQLVESGGGLVKPGGSLRLSCAASGFTFSSYSMNWVRQAPGKGLEWVSSISSSSSYIYYADSVKGRFTISRDNAKNSLYLQMNSLRAEDTAVYYCARYSSSLGAFDIWGQGTTVTVSS
VL: QSVLTQPPSVSGAPGQRVTISCTGSSSNIGAGYDVHWYQQLPGTAPKLLIYGNSNRPSGVPDRFSGSKSGTSASLAITGLQAEDEADYYCQSYDSSLSDVFGTGTKVTVL
notes: full-length IgG
Take B13: in test [2], the binding result was “no binding”.

B14: ADI-21049 (antibody, V domains shown)
VH: EVQLVESGGGLVKPGGSLRLSCSASGFAFSSYSMNWVRQAPGKGLEWVSSISASSSYIFYADSVKGRFTISRDNAKNSLYLQMNSLRAEDTAFYYCARALSPGYGDYRDYWGQGTLVTVSS
VL: QSVVTQPPSVSGAPGQRVTISCTGSSSNIGAGYDVHWYQQLPGAAPKLLIYGNNNRPSGVPDRFSGSKSGTSASLAITGLQAEDEADFYCQSYDHNLSVVFGGGTKLTVL
For the molecule B14, the Kd in test [1] was determined as 1.27 nM.

B15: ADI-22767 (antibody, V domains shown)
VH: QVQLVESGGGLVKPGGSLRLSCAASGFTFSSYSMNWVRQAPGKGLEWVSSISSSSSYIYYADSVKGRFTISRDNAKNSLYLQMNSLRAEDTAVYYCAREANWGVAFDIWGQGTMVTVSS
VL: QSVVTQPPSVSGAPGQRVTISCTGSSSNIGAGYDVHWYQQLPGTAPKLLIYGNSNRPSGVPDRFSGSKSGTSASLAITGLQAEDEADYYCQSYDSSLSYVFGTGTKVTVL
notes: full-length IgG
Take B15: the binding result in test [2] is “no binding”.

B16: ADI-21058 (antibody, V domains shown)
VH: QVQLQESGPGLVKPSETLSLTCTVSGGSISGTTYYWAWIRQPPGKGLEWIGTIFYSGSTYYNPSLQSRVTTSVDASKNQMSLRLSSVTAADTAMYYCARHTSIYDNLTGFYSHLTGVLDMWGQGTMVTVSS
VL: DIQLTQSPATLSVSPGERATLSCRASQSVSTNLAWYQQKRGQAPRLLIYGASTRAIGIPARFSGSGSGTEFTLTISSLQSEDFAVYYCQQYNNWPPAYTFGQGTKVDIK
B16 yielded a Kd in test [1] of 0.515 nM.

B17: ADI-14603 (antibody, V domains shown)
VH: QVQLVQSGAEVKKPGESLKISCKGSGYTFTNYWIGWVRQMPGKGLEWMGIIYPGDSDTRYSPSFQGQVTISADKSITTAYLQWRVLKASDTAMYYCATMRGSSSHFHHWGQGTLVTVSS
VL: DIQVTQSPSSLSASVGDRVTITCRAGQGIGNYLAWYQQKPGKVPKVLIYAASTLQSGVPSRFSGSGSGTEFTLTISSLQPEDVATYYCQKYNNAPYAFGQGTRLEIK
notes: also called Ab 131
The molecule B17 yielded a dissociation constant Kd in test [1] of 30.5 nM.

B18: ADI-21015 (antibody, V domains shown)
VH: QVQLVQSGAEVKKPGASVRVSCKVPGNTLSDLSMHWVRHTPGEGLEWMGSFDPEYGETIPAQRFQGRVTMTEDTSTDTAYMELTSLRFEDTAVYYCAAPHASGALQHWGQGTLVTVSS
VL: DIVMTQSPSSLSASVGDRVTITCRASQIISAYLNWYQQKAGKAPKLLIYAASSLQSGVPSRFSGSGSGTDFTLTISSLQPEDFATYYCQQTYITPFTFGQGTKLEIK
B18 returned an equilibrium dissociation constant (Kd) in test [1] of 32.4 nM.

B19: ADI-21013 (antibody, V domains shown)
VH: QVQLQESGPGVVKPSETLSLTCTVSGGSISNTHSYWGWIRQSPGKGLEWIGSIYYTGSTYYNPSFRSRVTLSVDTSKNQFSLKLSSVTAADTAVYYCAAPDYFVLTDYKSTFDYWGRGALVTVSS
VL: DIVMTQSPGTLSLSPGGRATLSCRASQSVGSSSLAWYQQKPGQAPRLLIYGASSRAAGIPDRFSGSGSGTDFTLTINRLEPEDFAMYYCQQYGSSPLTFGGGTKVEIK
On to B19, for which, in test [1], the Kd turned out to be 1.79 nM.

B20: ADI-20987 (antibody, V domains shown)
VH: QVQLVQSGGGVVHPGRSLRLSCAASGFSFSDYGMHWVRQAPGKGLEWVAVIWYDGINKYYADSVKGRFAISRDNSKNTLYLQMNSLRAGDTAVYYCARGGIAAAQRYFDYWGQGTLVTVSS
VL: ETTLTQSPGTLSLSPGERATLSCRASQTVSSSNLAWYQQKPGQAPRLLIYGASSRATGIPDRFSGSGSGTDFTLTISRLEPEDFAVYYCQQSGTSFGQGTKVDIK
In test [1], B20 had a Kd of 35.6 nM.

B21: ADI-21005 (antibody, V domains shown)
VH: EVQLVESGGAVVQPGGSLRLSCVASGLAFDEYTMHWVRQSSAKGLEWISLISWNGGITYYADSVKGRFTISRDNSKNSLYLQMNSLRTEDTATYFCARLGYGSGSDYGDDYWGQGTLVTVSS
VL: ETTLTQSPGTLSLSPGERATLSCRASQSVSNNYLAWYQQKPGQAPRLLIHGASTRVTGIPARFSGSGSGTDFTLTISRLEPEDFAVYYCHQYHSSPRTFGQGTKVDIK
Turning to B21, binding in test [1] was characterised by a dissociation constant (Kd) of 7.7 nM.
